Data on two molecules can be found in paper PMC13317680, “Molecular architecture of the human citrate synthase–malate dehydrogenase 2 metabolon” (Acta Crystallographica Section D: Structural Biology, 2026).

By stoichiometry N is commonly meant a count of units in the complex or per binding partner.

Some results are limits rather than exact numbers.

Data set [1] has as its target Human citrate synthase (human) (UniProt O75390). Description: SEC-SAXS; glutaraldehyde cross-linked hMDH2-hCS; Shodex KW-803, 50 mM sodium phosphate pH 7, 100 mM NaCl, 2 mM DTT, 2% glycerol, 10°C; LightDock models fitted with FoXS.
For data set [2] the target is unchanged.
Data set [3] concerns the molecule itself. Description: SAXS (SEC-SAXS and HT-SAXS); hCS alone, 0.07-2.0 mg/ml in 50 mM Tris-HCl, 100 mM NaCl, 0.1 mM EDTA pH 7.5, 10°C; data compared with crystal structures and a normal-mode model (FoXS). For orientation: In gel filtration, larger molecules generally elute earlier.

“Human mitochondrial malate dehydrogenase 2 (from UniProt P40926-1 25-338) (enzyme)” gave a stoichiometry N (hMDH2 (dimer) per hCS (dimer)) in data set [1] of 2. In data set [2], the NADH production (A340), hMDH2 titrated into 2.5 µM hCS at hMDH2:hCS molar ratios 0:1 to 3:1; no saturation (hMDH2 dimer per hCS dimer) is above 1.

B1: Human citrate synthase (enzyme, UniProt O75390 28-466, looked up)
chain: ASSTNLKDILADLIPKEQARIKTFRQQHGKTVVGQITVDMMYGGMRGMKGLVYETSVLDPDEGIRFRGFSIPECQKLLPKAKGGEEPLPEGLFWLLVTGHIPTEEQVSWLSKEWAKRAALPSHVVTMLDNFPTNLHPMSQLSAAVTALNSESNFARAYAQGISRTKYWELIYEDSMDLIAKLPCVAAKIYRNLYREGSGIGAIDSNLDWSHNFTNMLGYTDHQFTELTRLYLTIHSDHEGGNVSAHTSHLVGSALSDPYLSFAAAMNGLAGPLHGLANQEVLVWLTQLQKEVGKDVSDEKLRDYIWNTLNSGRVVPGYGHAVLRKTDPRYTCQREFALKHLPNDPMFKLVAQLYKIVPNVLLEQGKAKNPWPNVDAHSGVLLQYYGMTEMNYYTVLFGVSRALGVLAQLIWSRALGFPLERPKSMSTEGLMKFVDSKSG
notes: Human citrate synthase, mitochondrial, UniProt O75390, amino acids 28-466; Dimer in solution by SAXS; PDB 5uzr was the starting model for the SAXS fit; also called hCS; CS; source: E. coli, purified (HisTrap nickel column, Sephacryl S200 SEC)
On to B1, for which, in data set [3], the “stoichiometry N” value was 2.
